From patent US7410949 (Hoffmann-La Roche, dated 2008)
*1 amine or outer side, *2 acyl side, *3 side chain or, on linkers, in order; H or OH if unused. Bridges are numbered along the chain shown (N, C = ends). [ ]: non-standard residue; d: D form. Pqa = N-piperazin-1-yl-4(3H)-quinazolinone-3-acetic acid, O=C(Cn1cnc2ccc(N3CCN([*:1])CC3)cc2c1=O)[*:2]; Phe(3,4,5-F3) = N[C@@H](Cc1cc(F)c(F)c(F)c1)C(=O)O; Phe(F5) = N[C@@H](Cc1c(F)c(F)c(F)c(F)c1F)C(=O)O; 4Pal = N[C@@H](Cc1ccncc1)C(=O)O; Tic = O=C(O)[C@@H]1Cc2ccccc2CN1; 4‑MeOApc = not defined here; Nle = CCCC[C@H](N)C(=O)O

B1: H-Ile-Lys-Gly-Cms-Arg-His-Tyr-Leu-Asn-Leu-Val-Thr-Arg-Gln-Arg-Tyr-NH2 (peptide)
peptide: IKGRHYLNLVTRQRY
modifications: Cms moiety between the two parts; C-terminal amide
B2: H-Ile-Lys-Pqa-Arg-His-Tyr-Leu-Asn-Leu-Val-Thr-Arg-Gln-(NMe)Arg-Tyr-NH2 (peptide)
peptide: IKRHYLNLVTRQRY
modifications: N-methyl Arg at PYY position 35 (residue 11 of the second part); Pqa moiety between the two parts; C-terminal amide
B3: H-Ile-Lys-Pqa-Arg-His-Tyr-Leu-Asn-Leu-Val-Thr-(D)Arg-Gln-Arg-Tyr-NH2 (peptide)
peptide: IKRHYLNLVTRQRY
modifications: (D)Arg at PYY position 33 (residue 9 of the second part); Pqa moiety between the two parts; C-terminal amide
B4: H-Ile-Lys-Pqa-Arg-His-Tyr-Leu-Asn-Leu-Val-Thr-Arg-Ala-Arg-Tyr-NH2 (peptide)
peptide: H-IK[Pqa]RHYLNLVTRARY-NH2
SMILES: CC[C@H](C)[C@H](N)C(=O)N[C@@H](CCCCN)C(=O)N1CCN(c2ccc3ncn(CC(=O)N[C@@H](CCCNC(=N)N)C(=O)N[C@@H](Cc4c[nH]cn4)C(=O)N[C@@H](Cc4ccc(O)cc4)C(=O)N[C@@H](CC(C)C)C(=O)N[C@@H](CC(N)=O)C(=O)N[C@@H](CC(C)C)C(=O)N[C@H](C(=O)N[C@H](C(=O)N[C@@H](CCCNC(=N)N)C(=O)N[C@@H](C)C(=O)N[C@@H](CCCNC(=N)N)C(=O)N[C@@H](Cc4ccc(O)cc4)C(N)=O)[C@@H](C)O)C(C)C)c(=O)c3c2)CC1
B5: H-Ile-Lys-Pqa-Arg-His-Tyr-Leu-Asn-Leu-Val-Thr-Arg-Gln-(D)Arg-Tyr-NH2 (peptide)
peptide: IKRHYLNLVTRQRY
modifications: (D)Arg at PYY position 35 (residue 11 of the second part); Pqa moiety between the two parts; C-terminal amide
B6: Cyclo Lys28-Asp32 Ac-Ile-Nle-Pqa-Arg-His-Tyr-Lys-Asn-Leu-Val-Asp-Arg-Gln-Arg-Tyr-NH2 (peptide)
peptide: Ac-I[Nle][Pqa]RHYKNLVDRQRY-NH2
modifications: lactam 7-11
B7: H-Ile-Lys-Pqa-Arg-His-Tyr-Leu-Asn-Leu-Val-Ala-Arg-Gln-Arg-Tyr-NH2 (peptide)
peptide: H-IK[Pqa]RHYLNLVARQRY-NH2
SMILES: CC[C@H](C)[C@H](N)C(=O)N[C@@H](CCCCN)C(=O)N1CCN(c2ccc3ncn(CC(=O)N[C@@H](CCCNC(=N)N)C(=O)N[C@@H](Cc4c[nH]cn4)C(=O)N[C@@H](Cc4ccc(O)cc4)C(=O)N[C@@H](CC(C)C)C(=O)N[C@@H](CC(N)=O)C(=O)N[C@@H](CC(C)C)C(=O)N[C@H](C(=O)N[C@@H](C)C(=O)N[C@@H](CCCNC(=N)N)C(=O)N[C@@H](CCC(N)=O)C(=O)N[C@@H](CCCNC(=N)N)C(=O)N[C@@H](Cc4ccc(O)cc4)C(N)=O)C(C)C)c(=O)c3c2)CC1
B8: H-Ala-Lys-Pqa-Arg-His-Tyr-Leu-Asn-Leu-Val-Thr-Arg-Gln-Arg-Tyr-NH2 (peptide)
peptide: AKRHYLNLVTRQRY
modifications: Pqa moiety between the two parts; C-terminal amide
B9: Ac-Ile-Nle-Pqa-Arg-His-Tic-Leu-Asn-Leu-Val-Thr-Arg-Gln-Arg-Tyr-NH2 (peptide)
peptide: Ac-I[Nle][Pqa]RH[Tic]LNLVTRQRY-NH2
SMILES: CCCC[C@H](NC(=O)[C@@H](NC(C)=O)[C@@H](C)CC)C(=O)N1CCN(c2ccc3ncn(CC(=O)N[C@@H](CCCNC(=N)N)C(=O)N[C@@H](Cc4c[nH]cn4)C(=O)N4Cc5ccccc5C[C@H]4C(=O)N[C@@H](CC(C)C)C(=O)N[C@@H](CC(N)=O)C(=O)N[C@@H](CC(C)C)C(=O)N[C@H](C(=O)N[C@H](C(=O)N[C@@H](CCCNC(=N)N)C(=O)N[C@@H](CCC(N)=O)C(=O)N[C@@H](CCCNC(=N)N)C(=O)N[C@@H](Cc4ccc(O)cc4)C(N)=O)[C@@H](C)O)C(C)C)c(=O)c3c2)CC1
B10: H-Ile-Lys-Pqa-Arg-His-Tyr-Leu-Asn-Ala-Val-Thr-Arg-Gln-Arg-Tyr-NH2 (peptide)
peptide: IKRHYLNAVTRQRY
modifications: Pqa moiety between the two parts; C-terminal amide
B11: Ac-Ile-Nle-Pqa-Arg-(4-MeOApc)-Tyr-Leu-Asn-Leu-Val-Thr-Arg-Gln-Arg-Tyr-NH2 (peptide)
peptide: Ac-I[Nle][Pqa]R[4‑MeOApc]YLNLVTRQRY-NH2
modifications: reading uncertain
B12: H-Ile-Lys-Pqa-Arg-His-Tyr-Leu-Asn-Leu-Ala-Thr-Arg-Gln-Arg-Tyr-NH2 (peptide)
peptide: H-IK[Pqa]RHYLNLATRQRY-NH2
SMILES: CC[C@H](C)[C@H](N)C(=O)N[C@@H](CCCCN)C(=O)N1CCN(c2ccc3ncn(CC(=O)N[C@@H](CCCNC(=N)N)C(=O)N[C@@H](Cc4c[nH]cn4)C(=O)N[C@@H](Cc4ccc(O)cc4)C(=O)N[C@@H](CC(C)C)C(=O)N[C@@H](CC(N)=O)C(=O)N[C@@H](CC(C)C)C(=O)N[C@@H](C)C(=O)N[C@H](C(=O)N[C@@H](CCCNC(=N)N)C(=O)N[C@@H](CCC(N)=O)C(=O)N[C@@H](CCCNC(=N)N)C(=O)N[C@@H](Cc4ccc(O)cc4)C(N)=O)[C@@H](C)O)c(=O)c3c2)CC1
B13: H-Ile-Lys-Pqa-Arg-His-Tyr-Leu-Ala-Leu-Val-Thr-Arg-Gln-Arg-Tyr-NH2 (peptide)
peptide: H-IK[Pqa]RHYLALVTRQRY-NH2
SMILES: CC[C@H](C)[C@H](N)C(=O)N[C@@H](CCCCN)C(=O)N1CCN(c2ccc3ncn(CC(=O)N[C@@H](CCCNC(=N)N)C(=O)N[C@@H](Cc4c[nH]cn4)C(=O)N[C@@H](Cc4ccc(O)cc4)C(=O)N[C@@H](CC(C)C)C(=O)N[C@@H](C)C(=O)N[C@@H](CC(C)C)C(=O)N[C@H](C(=O)N[C@H](C(=O)N[C@@H](CCCNC(=N)N)C(=O)N[C@@H](CCC(N)=O)C(=O)N[C@@H](CCCNC(=N)N)C(=O)N[C@@H](Cc4ccc(O)cc4)C(N)=O)[C@@H](C)O)C(C)C)c(=O)c3c2)CC1
B14: H-Ile-Ala-Pqa-Arg-His-Tyr-Leu-Asn-Leu-Val-Thr-Arg-Gln-Arg-Tyr-NH2 (peptide)
peptide: IARHYLNLVTRQRY
modifications: Pqa moiety between the two parts; C-terminal amide
B15: Ac-Ile-Nle-Pqa-Arg-(4-Pal)-Tyr-Leu-Asn-Leu-Val-Thr-Arg-Gln-Arg-Tyr-NH2 (peptide)
peptide: Ac-I[Nle][Pqa]R[4Pal]YLNLVTRQRY-NH2
SMILES: CCCC[C@H](NC(=O)[C@@H](NC(C)=O)[C@@H](C)CC)C(=O)N1CCN(c2ccc3ncn(CC(=O)N[C@@H](CCCNC(=N)N)C(=O)N[C@@H](Cc4ccncc4)C(=O)N[C@@H](Cc4ccc(O)cc4)C(=O)N[C@@H](CC(C)C)C(=O)N[C@@H](CC(N)=O)C(=O)N[C@@H](CC(C)C)C(=O)N[C@H](C(=O)N[C@H](C(=O)N[C@@H](CCCNC(=N)N)C(=O)N[C@@H](CCC(N)=O)C(=O)N[C@@H](CCCNC(=N)N)C(=O)N[C@@H](Cc4ccc(O)cc4)C(N)=O)[C@@H](C)O)C(C)C)c(=O)c3c2)CC1
B16: Ac-Ile-Nle-Pqa-(3,4,5 Trifluoro Phe)-His-Tyr-Leu-Asn-Leu-Val-Thr-Arg-Gln-Arg-Tyr-NH2 (peptide)
peptide: Ac-I[Nle][Pqa][Phe(3,4,5-F3)]HYLNLVTRQRY-NH2
SMILES: CCCC[C@H](NC(=O)[C@@H](NC(C)=O)[C@@H](C)CC)C(=O)N1CCN(c2ccc3ncn(CC(=O)N[C@@H](Cc4cc(F)c(F)c(F)c4)C(=O)N[C@@H](Cc4c[nH]cn4)C(=O)N[C@@H](Cc4ccc(O)cc4)C(=O)N[C@@H](CC(C)C)C(=O)N[C@@H](CC(N)=O)C(=O)N[C@@H](CC(C)C)C(=O)N[C@H](C(=O)N[C@H](C(=O)N[C@@H](CCCNC(=N)N)C(=O)N[C@@H](CCC(N)=O)C(=O)N[C@@H](CCCNC(=N)N)C(=O)N[C@@H](Cc4ccc(O)cc4)C(N)=O)[C@@H](C)O)C(C)C)c(=O)c3c2)CC1
B17: H-Ile-Lys-Pqa-Arg-His-Tyr-Leu-Asn-(D)Leu-Val-Thr-Arg-Gln-Arg-Tyr-NH2 (peptide)
peptide: IKRHYLNLVTRQRY
modifications: (D)Leu at PYY position 30 (residue 6 of the second part); Pqa moiety between the two parts; C-terminal amide
B18: H-Ile-Lys-Pqa-Arg-His-Tyr-Leu-Asn-Leu-(D)Val-Thr-Arg-Gln-Arg-Tyr-NH2 (peptide)
peptide: IKRHYLNLVTRQRY
modifications: (D)Val at PYY position 31 (residue 7 of the second part); Pqa moiety between the two parts; C-terminal amide
B19: Ac-Ile-Nle-Pqa-(2,3,4,5,6 Penta fluoro Phe)-His Tyr-Leu-Asn-Leu-Val-Thr-Arg-Gln-Arg-Tyr-NH2 (peptide)
peptide: Ac-I[Nle][Pqa][Phe(F5)]HYLNLVTRQRY-NH2
SMILES: CCCC[C@H](NC(=O)[C@@H](NC(C)=O)[C@@H](C)CC)C(=O)N1CCN(c2ccc3ncn(CC(=O)N[C@@H](Cc4c(F)c(F)c(F)c(F)c4F)C(=O)N[C@@H](Cc4c[nH]cn4)C(=O)N[C@@H](Cc4ccc(O)cc4)C(=O)N[C@@H](CC(C)C)C(=O)N[C@@H](CC(N)=O)C(=O)N[C@@H](CC(C)C)C(=O)N[C@H](C(=O)N[C@H](C(=O)N[C@@H](CCCNC(=N)N)C(=O)N[C@@H](CCC(N)=O)C(=O)N[C@@H](CCCNC(=N)N)C(=O)N[C@@H](Cc4ccc(O)cc4)C(N)=O)[C@@H](C)O)C(C)C)c(=O)c3c2)CC1
B20: H-Ile-Lys-Pqa-Arg-Ala-Tyr-Leu-Asn-Leu-Val-Thr-Arg-Gln-Arg-Tyr-NH2 (peptide)
peptide: H-IK[Pqa]RAYLNLVTRQRY-NH2
SMILES: CC[C@H](C)[C@H](N)C(=O)N[C@@H](CCCCN)C(=O)N1CCN(c2ccc3ncn(CC(=O)N[C@@H](CCCNC(=N)N)C(=O)N[C@@H](C)C(=O)N[C@@H](Cc4ccc(O)cc4)C(=O)N[C@@H](CC(C)C)C(=O)N[C@@H](CC(N)=O)C(=O)N[C@@H](CC(C)C)C(=O)N[C@H](C(=O)N[C@H](C(=O)N[C@@H](CCCNC(=N)N)C(=O)N[C@@H](CCC(N)=O)C(=O)N[C@@H](CCCNC(=N)N)C(=O)N[C@@H](Cc4ccc(O)cc4)C(N)=O)[C@@H](C)O)C(C)C)c(=O)c3c2)CC1
B21: Ac-Ile-Ala-Pqa-Arg-His-Tyr-Leu-Asn-Leu-Val-Thr-Arg-Gln-Arg-Tyr-NH2 (peptide)
peptide: IARHYLNLVTRQRY
modifications: N-terminal acetyl; Pqa moiety between the two parts; C-terminal amide

Biological target: T1, human NPY2 receptor (human, UniProt P49146 1-381)
T1 sequence (looked up): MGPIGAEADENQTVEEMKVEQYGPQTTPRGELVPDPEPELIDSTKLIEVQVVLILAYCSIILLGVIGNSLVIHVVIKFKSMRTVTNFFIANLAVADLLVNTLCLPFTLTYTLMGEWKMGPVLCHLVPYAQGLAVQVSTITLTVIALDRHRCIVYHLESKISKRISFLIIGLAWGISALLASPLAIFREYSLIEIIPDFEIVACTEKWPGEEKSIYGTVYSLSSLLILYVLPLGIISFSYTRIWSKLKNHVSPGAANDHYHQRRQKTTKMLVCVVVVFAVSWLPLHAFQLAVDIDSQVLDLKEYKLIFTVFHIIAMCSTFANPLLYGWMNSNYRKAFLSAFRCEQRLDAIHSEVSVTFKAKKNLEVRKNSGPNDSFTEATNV
Test: cell-based or functional assay

Binder | Y2R EC50(nM) FLIPR [nM] | Y2R IC50(nM) cAMP [nM]
B1 | 4.16 | 0.085
B2 | 18.9 | 0.417

Biological target: Y4R
Test: cell-based or functional assay

Binder | Y4R EC50(nM) FLIPR [nM]
B3 | > 5000
B4 | > 5000
B5 | > 5000
B6 | > 5000
B7 | > 5000
B8 | > 5000
B9 | > 5000
B10 | > 5000
B11 | > 5000
B12 | > 5000
B13 | > 5000
B14 | > 5000
B15 | > 5000
B16 | > 5000
B17 | > 5000
B18 | > 5000
B19 | > 5000
B20 | > 5000
B21 | 3020

Biological target: Y1R
Sequence (P25929 whole entry): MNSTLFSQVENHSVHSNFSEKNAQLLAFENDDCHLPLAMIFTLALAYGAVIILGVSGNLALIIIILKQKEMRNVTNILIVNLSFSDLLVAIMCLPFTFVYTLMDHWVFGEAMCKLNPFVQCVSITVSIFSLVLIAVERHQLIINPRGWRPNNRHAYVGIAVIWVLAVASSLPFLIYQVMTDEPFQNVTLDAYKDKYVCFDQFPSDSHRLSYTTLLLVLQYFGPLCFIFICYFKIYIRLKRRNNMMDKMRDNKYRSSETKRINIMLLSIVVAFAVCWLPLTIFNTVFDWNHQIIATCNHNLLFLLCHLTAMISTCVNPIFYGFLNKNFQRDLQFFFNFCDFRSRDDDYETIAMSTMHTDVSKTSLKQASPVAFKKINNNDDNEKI
Test: cell-based or functional assay

Binder | Y1R EC50(nM) FLIPR [nM]
B3 | > 5000
B4 | > 5000
B5 | > 5000
B6 | > 5000
B7 | > 5000
B8 | > 5000
B9 | > 5000
B10 | > 5000
B11 | > 5000
B12 | > 5000
B13 | > 5000
B14 | 1000
B15 | > 5000
B16 | > 5000
B17 | > 5000
B18 | > 5000
B19 | > 5000
B20 | > 5000
B21 | > 5000
